One assay concerns resting lymphocytes. Put plainly: Restoration of anti-CD3 proliferation by IL-2. The format is cell-based. The conditions noted are these: human rIL-2 30 U/ml. How it is done: Human PBL were fractionated and incubated on immobiized monoclonal antibodies as described in Section I above. The cells were collected, washed and replated on anti-CD3 either in the presence or absence of human rIL-2 at 30 U/ml.

Assay [1] relates to PBMC and CD4+ T-lymphocytes. Put plainly: Costimulation of anti-CD3 induced lymphocyte proliferation. The conditions noted are these: anti-CD3 G19 0.001 μg/well; antibody 10 μg/well; 3 days. The format is cell-based, human. How it is done: Because anti-ICAM-R antibodies with anti-CD3 antibodies costimulated early PBMC activation events, anti-ICAM-R antibodies were tested for the ability to costimulate lymphocyte proliferation induced by immobilized anti-CD3 antibody. In addition, to determine whether anti-ICAM-R antibodies costimulate T-lymphocytes in the absence of accessory cells, anti-ICAM-R antibodies were tested for their ability to costimulate proliferation of pure CD4^+ T-lymphocytes, isolated using negative'selection. To isolate CD4^+ cells PBMC were suspended in tissue culture medium, added to 75 ml tissue culture flasks (Corning) and incubated for 1 hour at 37° C., 5% CO2. Plastic nonadherent cells were then removed from the flask by gently rinsing once with PBS. The nonadherent cell fraction was suspended (10^7 cells/ml) in an antibody cocktail containing 1 μg/ml anti-CD8 antibody (Pharmingen, San Diego, Calif.), 1 μg/ml anti-CD19 (Becton Dickinson), 1 μg/ml anti-CD11b (Becton Dickinson) in 10% FBS-PBS (coating medium), and incubated for 1 hour at 4° C. Unbound antibody was removed by washing twice in coating medium. […] Lymphocyte proliferation was measured by ^3H-thymidine incorporation by the PMBC or CD4^+ cells. […]

The target in assay [2] is T1, Protein 3 (ICAM-R domains 1-3 fused to ICAM-1) (Homo sapiens, UniProt P05362+P32942, A326V/A340P/A352Q/A353P/D347N/D369N/D382A/E323K/E366P/E384Q/F374S/F385L/G339H/H327S/L386I/M337E/N363K/P354L/P357R/Q343K/Q356P/Q361L/Q393E/R388K/S322R/S330T/S335K/S367E/S390Q/S391T/T325E/T331E/V342A/V392R).
T1 construct: domains of ICAM-R (residues 1 to 291) fused to ICAM-1 (residues 317 to 532); ICAM-1 residues 317 to 532 (fusion partner in the same polypeptide); expressed in transfected cells; host or cells: COS cells, plasmid pcDNAAmp.RD1-3.1D4-5
Put plainly: FACS binding to COS cell transfectants. The conditions noted are these: antibody 5.0 ug/ml. From the text:
FIG. 7 is a diagram of the chimeric proteins whose construction is outlined below. Protein number 1 contains the amino-terminal immunoglobulin-like domain of ICAM-R (residues 1 to 93) fused to ICAM-1 (residue 117 to 532). Protein number 2 contains the first two amino terminal immunoglobulin-like domains of ICAM-R (residues 1 to 190) fused to ICAM-1 (residues 216 to 532). Protein number 3 contains the first three immunoglobulin-like domains of ICAM-R (residues 1 to 291) fused to ICAM-1 (residues 317 to 532).
For the anti-ICAM-R monoclonal antibody binding assay, COS cells transfected with constructs encoding the ICAM-R chimeric proteins or control constructs were removed from the plates by EDTA treatment and aliquoted at 2.5×10^5 cells per well in a 96-well round bottom plate. Cells were washed 3 times with ice cold washing buffer (PBS containing 1% BSA and 0.05% sodium azide). Anti-ICAM-R monoclonal antibody was applied at 5.0 ug/ml in 50 ul final volume and incubated on ice for 30 minutes. Cells were then washed three times with cold washing buffer and incubated with the FITC labeled secondary antibody (sheep anti-mouse IgG F(ab′)2) at a 1:100 dilution on ice for 30 minutes in dark in 50 ul final volume. After the incubation, cells were washed again for three times in the ice cold washing buffer and resuspended in 200 ul of 1% paraformaldehyde. The samples were analyzed on a Becton-Dickinson FACScan instrument. Results of the assay are given below in Table 5 as percent positive COS cell transfectants, wherein MOPC 21 (IgG1) and UPC 10 (IgG2a) are isotype matched controls, 18E3D is an ICAM-1 specific monoclonal antibody and ICR-1.1 to ICR-9.2 are ICAM-R specific monoclonal antibodies. The reactivities of monoclonal antibodies ICR-1.1 through ICR-9.2 were assayed in a different experiment than monoclonal antibodies ICR-12.1 through ICR-17.1.

This is an account of results in patent US20040248211A1, “ICAM-related protein” (priority 1992, published 2004).

T1 sequence (P32942+P05362 fused with the stated changes): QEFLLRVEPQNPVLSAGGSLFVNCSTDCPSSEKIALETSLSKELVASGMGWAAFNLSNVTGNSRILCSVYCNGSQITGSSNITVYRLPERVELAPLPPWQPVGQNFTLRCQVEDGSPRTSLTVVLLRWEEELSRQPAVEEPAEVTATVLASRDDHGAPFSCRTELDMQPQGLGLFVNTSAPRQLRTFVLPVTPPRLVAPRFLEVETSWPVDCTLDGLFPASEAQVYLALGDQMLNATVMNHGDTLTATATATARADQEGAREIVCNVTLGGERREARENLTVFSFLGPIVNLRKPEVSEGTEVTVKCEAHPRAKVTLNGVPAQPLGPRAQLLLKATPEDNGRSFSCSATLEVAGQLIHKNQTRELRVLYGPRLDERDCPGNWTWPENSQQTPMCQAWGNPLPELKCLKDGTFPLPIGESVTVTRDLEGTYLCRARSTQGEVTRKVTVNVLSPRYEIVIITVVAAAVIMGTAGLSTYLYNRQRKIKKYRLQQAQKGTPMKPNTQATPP

B1: ICR-1.1: anti-ICAM-R monoclonal antibody, IgG2a, domain 1, ATCC HB 11053 (antibody, V domains shown)
VH: QVQLQQSGAELAKPGASVKMSCKASGYTFTVYWMHWVKQRPGQGLEWIGYINPNTDYTEYNQRFQDKATLTADKSSSTAYMQLSSLTSEDSAVYYCARWGGNSYGLDYWGQGTSVTVSS
VL: QIVLTQSPALMSASPGEKVTMTCSASSSVSYIYWYQQKPRSSPKPWIYLTSNLASGVPARFSGSGSGASYSLTISIMEAEDAATYYCQQWKSIPLTFGAGTKLELK
As for B1, the “proliferative response to anti-CD3 after prepulse, with added IL-2” value in the assay with resting lymphocytes was “completely restored proliferative responses”. For the same molecule, in assay [1], the “proliferative response to immobilized anti-CD3” value was “increased the PBMC and purified CD4^+ cell response to anti-CD3”. Also, the “percent positive COS cell transfectants, Protein 3” value in assay [2] is given as 52.71%.
